Test results reported in the DeepSol protein solubility set.

Assay: soluble on expression in E. coli; label from the status in PepcDB or PDB records

Row | Sequence | soluble on expression in E. coli
1 | MGSDKIHHHHHHMESIVSWPKPRGLARHSGRKAMSSLSSLARIALSLSLPSGLLDRGPSLRGTKFLAKAALKARFGGASQPFQMVNVGACDGALFDDVTPWLHRIAGARAMLVEPIPYNQKRLRANYPDKERFIIEPVAVTKTKGTITVHTFDAAALEAGTLPIEFIGCSSVTDTNLMSGKNAWGEADANFNKFAPHLRDIEVPSETLQTLLDRNGISHIDAFLVDCEGADWMVFEQLDLKRYRPGLIKVEVGALPATEIGQVVVKLKTAGYQVGFQAEDVWAFA | not soluble
2 | GSPEFKTIDASVSKKAADSTSQCGKATGSDSSGVIDLTMDDEESGASQD | soluble
3 | MSDVNAPAGLAALEARLQQDLAWLDLPAKPWVKPRTNAGQAVLDVAIIGGGMAGLALAAELRHLGVAAVIFDQSPAGFEGPWATTARMETLRSPKQLTGPALGLPALTFRAWYEAQFGADGWAALDKIPRLQWAEYLRWYRKALALDVRNEHRVSRVAPRTDGLVELDIMTPGQTRFMLARHVVLATGRDGLGGPWVPDFARQLPDHLWTHSAAGLQDDWFEGRRVAVIGGGASAMDSAATALEAGAQRVDLLIRRAELPRVNKGKGVGNPGMVHGYWRLPDIWKWRIRHYLNRQQVPPPRGSTLRVSRSGRARFLLDNPVLAVEANPAGGVWLQTSKARVEADFVVFATGFRTDFELRPEFAPFSSHIRVWQDRFEAPEGEADSELAVLPDLGNCFEFQEKTPGACPGLNHIHCFSYPAALSYGAVSGDIPAISEGSKRLAHALIGLLFNEDIALHFESMRSYAEPELLGDEWVASEPGTEELRPLEHHHHHH | not soluble
4 | MSLTIFDNYEVWFVIGSQHLYGPETLRQVTQHAEHVVNALNTEAKLPCKLVLKPLGTTPDEITAICRDANYDDRCAGLVVWLHTFSPAKMWINGLTMLNKPLLQFHTQFNAALPWDSIDMDFMNLNQTAHGGREFGFIGARMRQQHAVVTGHWQDKQAHERIGSWMRQAVSKQDTRHLKVCRFGDNMREVAVTDGDKVAAQIKFGFSVNTWAVGDLVQVVNSISDGDVNALVDEYESCYTMTPATQIHGKKRQNVLEAARIELGMKRFLEQGGFHAFTTTFEDLHGLKQLPGLAVQRLMQQGYGFAGEGDWKTAALLRIMKVMSTGLQGGTSFMEDYTYHFEKGNDLVLGSHMLEVCPSIAAEEKPILDVQHLGIGGKDDPARLIFNTQTGPAIVASLIDLGDRYRLLVNCIDTVKTPHSLPKLPVANALWKAQPDLPTASEAWILAGGAHHTVFSHALNLNDMRQFAEMHDIEITVIDNDTRLPAFKDALRWNEVYYGFRREGHHHHHH | soluble
5 | MKRVLIPGVILCGADVAQAVDDKNMYMHFFEEMTVYAPVPVPVNGNTHYTSESIERLPTGNGNISDLLRTNPAVRMDSTQSTSLNQGDIRPEKISIHGASPYQNAYLIDGISATNNLNPANESDASSATNISGMSQGYYLDVSLLDNVTLYDSFVPVEFGRFNGGVIDAKIKRFNADDSKVKLGYRTTRSDWLTSHIDENNKSAFNQGSSGSTYYSPDFKKNFYTLSFNQELADNFGVTAGLSRRQSDITRADYVSNDGIVAGRAQYKNVIDTALSKFTWFASDRFTHDLTLKYTGSSRDYNTSTFPQSDREMGNKSYGLAWDMDTQLAWAKLRTTVGWDHISDYTRHDHDIWYTELSCTYGDITGRCTRGGLGHISQAVDNYTFKTRLDWQKFAVGNVSHQPYFGAEYIYSDAWTERHNQSESYVINAAGKKTNHTIYHKGKGRLGIDNYTLYMADRISWRNVSLMPGVRYDYDNYLSNHNISPRFMTEWDIFANQTSMITAGYNRYYGGNILDMGLRDIRNSWTESVSGNKTLTRYQDLKTPYNDELAMGLQQKIGKNVIARANYVYREAHDQISKSSRTDSATKTTITEYNNDGKTKTHSFSLSFELAEPLHIRQVDINPQIVFSYIKSKGNLSLNNGYEESNTGDNQVVYNGNLVSYDSVPVADFNNPLKISLNMDFTHQPSGLVWANTLAWQEARKARIILGKTNAQYISEYSDYKQYVDEKLDSSLTWDTRLSWTPQFLQQQNLTISADILNVLDSKTAVDTTNTGVATYASGRTFWLDVSMKF | not soluble
6 | MSLKEELLEAIYGTVERLEQKVDELSASPKNTEAESTPVSVSVDTSKLEKAILAMAVKEGEAIDKLVRLREAICIFTDLTKKEASKDEQRSKLLFDTINQVKQELNATSKNVQDKLHAMDNAPLKKVVTHRFEPTSKYVLLFIGGLALSLVISIWGNLAQWREYQAWEVADLKYRALKMVLPSDDPNVRYIEKHFSVCRDEKVIDDVRNCVAAYEDSIRHHHEMVEMATYKDSIANKLLQESNRIIRAMKSSKEGHHHHHH | not soluble
7 | NYNIYDHPKAAEDRKNTVLYLMHYHKRITDKQWEDAKKIDLKANLVNRTPEERQNIDTNQDSEYNSYVNFVKSELMNNKAFKDENLGNVLQSG | not soluble
8 | MGSDKIHHHHHHTKRWEEGKMSNFEYLTMLNLFAGRTIHDSSSSPIFPRILAKFGDKSVDLQDKTIYRKLDRPVAAQDPVSVEKHKEHYNELKENEEISHLTPYHFGSMCSNRGVVSFFNIRLLPFGEEAIELQDGRFDFPDRLFHNIESGLGLGKIESSNDYKELVPELFTTVEVLRNDNGNQFGEKQNGETVNDVDVPQWCYMDEKAVHENFIYLHRHALESEIVQSMLHHWIDLVFGYKSRGKSAHDAINVYHPAVYPGNSPPPSFDRVMTNAYEANQKTLGTAPIQLFTQSHPKR | not soluble
9 | MGSDKIHHHHHHMEKAVENFEDLSKEYINGYIERARKAQREFECYTQEQVDKIVKIVGKVVYYNAEYLAKLAVEETGMGVYEDKVAKNKSKAKVIYNNLKDKKSVGIIDIDRETGITKVAKPVGVVAAITPCTNPIVTPMSNAMFALKGRNAIIITPHHKAIGCSTKTVEMINEELEKIGAPENLIQILDQQSRENTRNLISSADVVIATGGMGMVKAAYSSGKPALGVGAGNVQCIIDRDVDIKEAVPKIIAGRIFDNGIICSGEQSVIVAEEMFDKIMDEFKNNKGFIVRDKVQKEAFRNAMFVNKSMNKDAVGQSVHTIAKIAGVEIPEDTKIIVIEADGPGEEDIIAKEKMCPVISAYKYKSFEEGVAIAKANLNVEGKGHSVSIHSNTVKNIEYAGENIEVSRFVINQCCATSAGGSFFNGLAPTNTLGCGSWGNNSISENLDYKHLINISRIAYYMPENEVPTDEELWG | not soluble
10 | RFNVFDFRGATLIADYGHNPDAIQALVRAIDTMPARRRSVVISGAGDRRDEDLRQQTEILGGAFDDVILYQDQCQRGRADGEVVALLRQGLQQAPRTRHIDEIQGEFVAIDAALERLAPGDLCLILVDQ | not soluble
11 | MSLNEWALETDAEFLVYNALRETGRLLISPDAITKQKARHVMRQVIARYPLGSKHDKLWLAAVEMLHYYAPEVLQQLGIDLDAAKRDLAARILPNRFECQGPAIIRSQDLSDAQAAQACDVLDKKEQDFHQVANTGLAPVADDYNTRVEVVVFANNSSYVNYSSFLFGNTTDNGGQYLEGNPADQNNQARFVAYRYANDADLSILNLEHEYTHYLDARFNQYGSFSDNLAHGHIVWWLEGFAEYMHYKQGYQAAVKLISQGKLSLSDVFATTYSNDTNRIYRWGYLAVRFMLEKHPQDVESLLALSRTGQFDQWAQSVKLLGERYNTEFSAWLDTLQRDNEGHHHHHH | not soluble
12 | QFKVKSAFKKYSQVATQNGVTGAQAALRILQRGGLENVNVEMTSGMLSDHYDPRQKVLRLSEEVYSLPSIASVGVAAHEAGHALQDKVNYSPLAIRSAM | not soluble
13 | MSLQMDQYLAQPLMIQEAQLVTIASGTTLSRELAQLTEQAWIQDSFVAEWVRRFHPELSKIKAGTYKLQPDMSLEQALALLVSGKEHQFSITFVEGSRFQEWRDILASNENITQQLTGLTEIDIAKALGIEHEKLEGLFLAETYHFTKGTSDVEILKRANQKLEKFLQVTWEHRQEGLPIQTPYEALILASIIEKETSIAEERERIAAVFINRLNKRMRLQTDPTVIYGMGETYDGNIRKKDLRARTPYNTYVINGLPPTPIAMPGEASIYAALNPEQSDYLYFVASGEGGHNFSKTLADHNRAVRAYLKKLRTKQEGHHHHHH | soluble
